Source: patent US20230099801A1, “RESTORATION OF T CELL ACTIVITY VIA THE CD39/CD73 AXIS” (INNATE PHARMA, priority 2017, published 2023)

How the values were obtained:
[1] = target: T1, CD73 mutants having substitutions at residues A99, E129, K133, E134 and A135 (Homo sapiens, UniProt P21589, A135S/A99S/E129A/E134N/K133A); details: cited from earlier work
T1 sequence (P21589 27-549 A99S/E129A/K133A/E134N/A135S): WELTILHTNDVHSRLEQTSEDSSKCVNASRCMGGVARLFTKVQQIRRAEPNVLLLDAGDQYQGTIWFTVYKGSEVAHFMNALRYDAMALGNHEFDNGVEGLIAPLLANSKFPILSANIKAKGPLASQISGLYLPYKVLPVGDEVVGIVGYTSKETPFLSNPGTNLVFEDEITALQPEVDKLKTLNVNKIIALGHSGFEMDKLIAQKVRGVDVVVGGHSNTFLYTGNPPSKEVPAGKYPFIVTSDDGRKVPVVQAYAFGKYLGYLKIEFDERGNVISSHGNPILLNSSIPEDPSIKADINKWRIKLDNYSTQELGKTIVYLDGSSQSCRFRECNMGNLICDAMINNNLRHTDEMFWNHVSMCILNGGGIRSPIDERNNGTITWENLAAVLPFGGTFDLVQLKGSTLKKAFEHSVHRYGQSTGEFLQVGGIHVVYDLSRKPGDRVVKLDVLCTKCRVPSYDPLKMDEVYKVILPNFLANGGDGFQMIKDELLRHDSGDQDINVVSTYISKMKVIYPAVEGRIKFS

[2] = target: T2, CD73 mutants having a substitution at residue K136 (Homo sapiens, UniProt P21589, K136A); details: cited from earlier work
T2 sequence (P21589 27-549 K136A): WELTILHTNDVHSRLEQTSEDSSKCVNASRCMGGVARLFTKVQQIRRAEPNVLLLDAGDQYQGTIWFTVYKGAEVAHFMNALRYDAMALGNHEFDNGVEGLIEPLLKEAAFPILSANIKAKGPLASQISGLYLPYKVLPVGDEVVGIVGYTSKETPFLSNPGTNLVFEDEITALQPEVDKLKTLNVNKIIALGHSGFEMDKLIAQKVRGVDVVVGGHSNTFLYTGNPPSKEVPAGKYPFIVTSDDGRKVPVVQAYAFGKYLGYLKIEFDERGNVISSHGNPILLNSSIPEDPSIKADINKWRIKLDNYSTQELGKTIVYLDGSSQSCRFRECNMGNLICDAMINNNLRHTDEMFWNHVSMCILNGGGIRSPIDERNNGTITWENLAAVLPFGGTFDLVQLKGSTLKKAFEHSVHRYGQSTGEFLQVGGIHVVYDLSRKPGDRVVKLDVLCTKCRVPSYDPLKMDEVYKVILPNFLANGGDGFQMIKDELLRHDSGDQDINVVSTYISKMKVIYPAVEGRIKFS

[3] = system: CD73 mutants having a substitution at residues K97, E125, Q153 and K330; details: cited from earlier work
[4] = system: other CD39 mutants of Table 1; assay: Epitope mapping by flow cytometry on the other CD39 mutants of Table 1; assay type: binding, human
Experimental: (§1) CD39 mutants were generated by PCR. The sequences amplified were run on agarose gel and purified using the Macherey Nagel PCR Clean-Up Gel Extraction kit (reference 740609). The purified PCR products generated for each mutant were then ligated into an expression vector, with the ClonTech InFusion system. The vectors containing the mutated sequences were prepared as Miniprep and sequenced. After sequencing, the vectors containing the mutated sequences were prepared as Midiprep using the Promega PureYield™ Plasmid Midiprep System. HEK293T cells were grown in DMEM medium (Invitrogen), transfected with vectors using Invitrogen's Lipofectamine 2000 and incubated at 37° C. in a CO2 incubator for 48 hours prior to testing for transgene expression. The targeted amino acid mutations in the table 1 below are shown using numbering of SEQ ID NO: 2.
(§2) In order to define the epitopes of anti-CD39 antibodies, we designed CD39 mutants defined by substitutions of amino acids exposed at the molecular surface over the surface of CD39.
Mutant 5 contains amino acid substitutions at residues Q96, N99, E143 and R147.
(§3) Mutants were transfected in Hek-293T cells, as shown in the table 1, using numbering of SEQ ID NO: 2. Dose-ranges of test antibodies (10-2.5-0.625-0.1563-0.0391-0.0098-0.0024-0.0006 μg/ml) are tested on the 20 generated mutants by flow cytometry.

[5] = target: T3, soluble recombinant human CD39 protein (Homo sapiens, UniProt P49961); assay: Inhibition of the enzymatic (ATPase) activity of soluble CD39, Cell Titer Glo; assay type: biochemical; details: 400 ng/ml soluble CD39, 20 μM ATP
T3 construct: made in house; host or cells: CHO cells
T3 sequence (P49961 with tags, fused parts or gaps): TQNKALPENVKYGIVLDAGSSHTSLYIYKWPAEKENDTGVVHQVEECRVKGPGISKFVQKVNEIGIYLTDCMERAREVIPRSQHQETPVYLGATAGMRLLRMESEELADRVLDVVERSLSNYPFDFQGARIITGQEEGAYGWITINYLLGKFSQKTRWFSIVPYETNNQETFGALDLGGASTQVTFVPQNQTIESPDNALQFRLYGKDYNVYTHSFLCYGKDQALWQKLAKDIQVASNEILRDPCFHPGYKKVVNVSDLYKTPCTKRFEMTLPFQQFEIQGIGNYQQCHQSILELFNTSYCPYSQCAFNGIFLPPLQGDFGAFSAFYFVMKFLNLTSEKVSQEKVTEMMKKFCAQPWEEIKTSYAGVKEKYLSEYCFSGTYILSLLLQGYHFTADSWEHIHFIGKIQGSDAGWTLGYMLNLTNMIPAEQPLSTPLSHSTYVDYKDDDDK
Experimental: The ability of an antibody to inhibit soluble recombinant human CD39 protein can be tested by detecting ATP after incubating test antibody with soluble CD39 protein (e.g., the CD39 protein having the amino acid sequence of SEQ ID NO: 5, as produced in Example 1, optionally further comprising a purification tag or other functional or non-functional non-CD39-derived amino acid sequence). See, e.g., Example 1. Briefly, ATP can be quantified using the Cell Titer Glo™ (Promega), in an assay in which dose ranges of test antibody are incubated with soluble recombinant human CD39 protein described in Example 1, for 1 hour at 37° C. 20 μM ATP are added to the plates for 30 additional minutes at 37° C. before addition of CTG reagent. Emitted light is quantified using an Enspire™ luminometer after a short incubation period of 5 min in the dark.
The inhibition by antibodies of the enzymatic activity of soluble CD39 protein produced was evaluated using Cell Titer Glo™ (Promega, reference G7571) that allows assessment of ATP hydrolysis through use of a reagent that generates a luminescent signal proportional to the amount of ATP present. In this way, inhibition of the soluble-CD39-mediated ATP hydrolysis can be assessed. Briefly, dose ranges of anti-CD39 antibodies from 100 μg/ml to 6×10^−3 μg/ml were incubated with 400 ng/ml of soluble recombinant human CD39 protein having the amino acid sequence described in the Methods section (SEQ ID NO: 54), for 1h at 37° C. 20 μM ATP was added to the plates for 30 additional minutes at 37° C. before addition of CTG (Cell Titer Glo) reagent. Emitted light was quantified using an Enspire™ luminometer after a short incubation period of 5 min in the dark. Anti-CD39 antibody efficacy was determined by comparing emitted light in presence of antibody with ATP alone (maximal light emission) and ATP together with soluble CD39 protein (minimal light emission).

CD39 mutant 11 = target: T4, CD39 mutant 11 (Homo sapiens, UniProt P49961, DUP378-378/E375A/K376G/L372K/N371K/V377S); assay: Epitope mapping by flow cytometry on Hek-293T cells expressing CD39 mutant 11; assay type: binding; details: insertion 377V, V377S (Table 1)
T4 construct: expressed in transfected cells; host or cells: HEK-293T cells
T4 sequence (P49961 with tags, fused parts or gaps N371K/L372K/E375A/K376G/DUP378-378): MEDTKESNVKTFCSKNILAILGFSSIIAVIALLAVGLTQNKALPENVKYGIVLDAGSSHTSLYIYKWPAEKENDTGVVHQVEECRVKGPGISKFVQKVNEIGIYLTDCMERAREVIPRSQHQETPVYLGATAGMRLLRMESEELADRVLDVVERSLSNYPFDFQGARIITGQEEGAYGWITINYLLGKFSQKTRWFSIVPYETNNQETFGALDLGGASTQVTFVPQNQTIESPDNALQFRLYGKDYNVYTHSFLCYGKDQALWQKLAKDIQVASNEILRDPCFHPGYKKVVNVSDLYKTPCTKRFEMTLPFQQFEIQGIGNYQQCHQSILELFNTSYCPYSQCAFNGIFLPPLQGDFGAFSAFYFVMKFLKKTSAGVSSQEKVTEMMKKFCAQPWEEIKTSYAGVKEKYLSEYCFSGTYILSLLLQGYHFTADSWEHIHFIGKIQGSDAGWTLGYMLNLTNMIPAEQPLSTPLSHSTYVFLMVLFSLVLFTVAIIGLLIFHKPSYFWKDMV
Experimental: as §1, §2, §3

Molecule | binding to CD73 mutants having substitutions at residues A99, E129, K133, E134 and A135 [1] | binding to CD73 mutants having a substitution at residue K136 [2] | binding to CD73 mutants having a substitution at residues K97, E125, Q153 and K330 [3] | binding to any other mutant of the 20 CD39 mutants [4] | inhibition of the enzymatic (ATPase) activity of soluble CD39 protein [5] | binding to cells expressing mutant 11 of CD39 (CD39 mutant 11)
3C12: anti-CD73 antibody, VH and VL of SEQ ID NOS: 44 and 45 (antibody, listed as Mus musculus, V domains shown) VH: QIQLQQSGPELVKPGASVKVSCKASGYAFASYNMNWVKQSHGKSLDWIGYIDPYNGGSSYNLTFKGKATLTVDKSSTTAYMHLNSLTSEDSAVYYCARGYGNYKAWFAYWGQGTLVTVSAASTKGP VL: DVVMTQTPKFLLVSAGDRVTITCKASQSVSNDVAWYQQKPGQSPKLLIYYASTRYTGVPDRFTGSGYGTDFTFTISTVQAEDLAVYFCQQDYSSLTFGAGTKLELKRTVAAP | lose binding | lose binding | lose binding | – | – | –
8C7: anti-CD73 antibody, VH and VL of SEQ ID NOS: 42 and 43 (antibody, listed as Mus musculus, V domains shown) VH: EVQLQQSGPELVKPGASVKVSCKASGYAFASYNMNWVKQSHGKSLDWIGYIDPYNGGSSYNLTFKGKATLTVDKSSTTAYMHLNSLTSEDSAVYYCARGYGNYKAWFAYWGQGTLVTVSAASTKGP VL: SIVMTPTPKFLLVSAGDRVTITCKASQSVSNDVAWYQQKPGQSPKLLIYYASTRYTGVPDRFTGSGYGTDFTFTISTVQAEDLAVYFCQQDYSSLTFGAGTKLELKRTVAAP | lose binding | lose binding | lose binding | – | – | –
11E1: anti-CD73 antibody, VH and VL of SEQ ID NOS: 40 and 41 (antibody, listed as Mus musculus, V domains shown) VH: EIQLQQSGPELVKPGASVKVSCKASGYAFTSYNMYWVKQSHGKSLEWIGYIDPYNGGTSYNQKFKGKATLTVDKSSSTAYMHLNSLTSEDSAVYYCARGYGNYKAWFAYWGQGTLVTVSA VL: DAVMTQTPKFLLVSAGDRVTITCKASQSVTNDVAWYQQKPGQSPKLLIYYASNRYTGVPDRFTGSGYGTDFTFTISTVQAEDLAVYFCQQDYSSLTFGAGTKLELK | lose binding | lose binding | lose binding | – | – | –
6E1: anti-CD73 antibody, VH and VL of SEQ ID NOS: 3 and 4 (WO2016/055609) (antibody, listed as Mus musculus, V domains shown) VH: EFQLQQSGPELVKPGASVKVSCKASGYAFTSYNMYWVKQSHGKRLEWIGYIDPYNGGSSYNQKFKGKATLTVDKSSSTAYMHLNNLTSEDSAVYYCARGYNNYKAWFAYWGQGTLVTVSA VL: SIVMTQTPKFLLVSAGDRVTITCKASQSVTNDVAWYQQKPGQSPKLLIYYASNRYTGVPDRFTGSGYGTDFTFTISTMQAEDLAVYFCQQDYSSLTFGAGTKLELK | lose binding | lose binding | lose binding | – | – | –
I-399: anti-CD39 antibody, VH SEQ ID NO: 30, VL SEQ ID NO: 31 (antibody, listed as Mus musculus, V domains shown) VH: PVQLQQPGAEVVMPGASVKLSCKASGYTFTSFWMNWMRQRPGQGLEWIGEIDPSDFYTNSNQRFKGKATLTVDKSSSTAYMQLSSLTSEDSAVYFCARGDFGWYFDVWGTGTSVTVSS VL: EIVLTQSPTTMTSSPGEKITFTCSASSSINSNYLHWYQQKPGFSPKLLIYRTSNLASGVPTRFSGSGSGTSYSLTIGTMEAEDVATYYCQQGSSLPRTFGGGTKLEIK | – | – | – | without loss of binding | showed inhibition | loss of binding
